According to article PMC3420232, “The Transmembrane Domains of TNF-Related Apoptosis-Inducing Ligand (TRAIL) Receptors 1 and 2 Co-Regulate Apoptotic Signaling Capacity” (PLoS ONE, 2012):

Target: T1, wild-type human TRAILR2 (human, UniProt O14763 56-440)
T1 construct: TRAIL receptor 2 (TRAILR2, DR5), human, wild type; the printed numbers (transmembrane region ending at 231, GIIIG at 212-216, stalk of about 34 aa) fit the long form; also called DR5; TRICK2; source: immortalized mouse fibroblasts (MF), stably transfected, on cells
Experiment: radioligand binding; competition on cells: 4x10^5 murine fibroblasts expressing the (chimeric) TRAIL receptor in PFA (PBS, 2% FCS, 0.002% sodium azide), 83 ng/ml 125I-TRAIL with or without unlabeled recombinant human TRAIL (83-5300 ng/ml), 4 hours on ice; cells spun through phthalate oil; 68 kDa used for TRAIL
Settings: one partner purified

IC50: 3.5 nM
B1: Flag-tagged recombinant human TRAIL (sTRAIL), unlabeled (ligand, UniProt P50591 95-281, looked up)
chain: TSEETISTVQEKQQNISPLVRERGPQRVAAHITGTRGRSNTLSSPNSKNEKALGRKINSWESSRSGHSFLSNLHLRNGELVIHEKGFYYIYSQTYFRFQEEIKENTKNDKQMVQYIYKYTSYPDPILLMKSARNSCWSKDAEYGLYSIYQGGIFELKENDRIFVSVTNEHLIDMDHEASFFGAFLVG
notes: TRAIL (TNF-related apoptosis-inducing ligand), human, soluble recombinant form (sTRAIL); no removal of the tag is told; also called FLAG-TRAIL; non-labeled TRAIL; source: bought: Axxora (Lörrach, Germany)
